We go through six molecules from article PMC4838878, “Super-complexes of adhesion GPCRs and neural guidance receptors” (Nature Communications, 2016).

Substitutions are numbered along the chain they refer to. In names and notes the source's numbering stands. Several values for one entry are separate records, joined by “and”; a condition that tells them apart may be missing. Identical values can stand only once.

T1: FLRT2^LRR+Lphn3^Lec–Olf (mixed in a 1:2 molar ratio) (mouse, UniProt Q8BLU0 35-362; Q80TS3-3 92-463)
T1 construct: FLRT2, mouse, residues 35-362 (leucine-rich repeat domain); as m2; Latrophilin3, mouse, residues 92-463 (Lec and Olf domains); as m1; Analyte mixture of the SPR experiment; by SEC-MALS the two proteins alone form a 1:1 complex; also called FLRT2^LRR+wild-type Lphn3^Lec–Olf
T1 sequence (looked up) 1: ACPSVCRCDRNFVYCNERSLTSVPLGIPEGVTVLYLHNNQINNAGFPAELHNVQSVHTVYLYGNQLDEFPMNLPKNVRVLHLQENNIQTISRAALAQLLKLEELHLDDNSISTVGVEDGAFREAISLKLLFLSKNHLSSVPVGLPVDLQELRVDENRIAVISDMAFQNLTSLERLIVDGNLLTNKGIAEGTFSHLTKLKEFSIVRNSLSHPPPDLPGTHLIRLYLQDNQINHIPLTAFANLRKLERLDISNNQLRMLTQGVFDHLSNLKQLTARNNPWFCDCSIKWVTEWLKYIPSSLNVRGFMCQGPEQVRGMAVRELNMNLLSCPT
T1 sequence (looked up) 2: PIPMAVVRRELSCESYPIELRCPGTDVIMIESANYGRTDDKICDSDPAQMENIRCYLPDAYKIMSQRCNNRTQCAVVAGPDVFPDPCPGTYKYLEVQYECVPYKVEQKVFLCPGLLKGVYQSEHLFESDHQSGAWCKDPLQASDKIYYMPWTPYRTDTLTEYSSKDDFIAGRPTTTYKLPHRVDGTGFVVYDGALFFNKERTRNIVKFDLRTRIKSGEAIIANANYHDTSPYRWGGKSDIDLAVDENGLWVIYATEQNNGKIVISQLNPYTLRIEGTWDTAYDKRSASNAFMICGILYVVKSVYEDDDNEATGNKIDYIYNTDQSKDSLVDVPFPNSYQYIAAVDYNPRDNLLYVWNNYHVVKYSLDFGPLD

T2: FLRT2^LRR+Lphn3^Lec–Olf DDD mutant (mouse, UniProt Q8BLU0 35-362; Q80TS3-3 92-463, D397N | D399T, artificial N-linked glycan at position 397)
T2 construct: FLRT2, mouse, residues 35-362 (leucine-rich repeat domain); as m2; Latrophilin3, mouse, residues 92-463 with D397N+D399T; as m9
T2 sequence (looked up) 1: T1 sequence (looked up) 1
T2 sequence (looked up) 2: T1 sequence (looked up) 2 with D306N, D308T

T3: Lphn3^Lec–Olf DDD mutant (D397N+D399T, artificial N-linked glycosylation site at position 397) (mouse, UniProt Q80TS3-3 92-463, D397N | D399T, artificial N-linked glycan at position 397)
T3 construct: Latrophilin3, mouse, residues 92-463 (Lec and Olf domains) with two substitutions in the DDD loop
T3 sequence (looked up): T1 sequence (looked up) 2 with D306N, D308T

B1: rat Unc5D two Ig and TSP1 domains (Unc5D^IgIgTSP) (domain or fragment)
chain: not shown
notes: signal peptide in the construct; Unc5D, rat, residues 1-307 (Ig1, Ig2 and TSP1 domains); Deglycosylated before crystallisation
B2: rat Unc5D ectodomain (Unc5D^ecto), biotinylated at a C-terminal Avitag (domain or fragment)
chain: not shown
modifications: biotin on the C-terminal Avitag (enzymatic)
notes: signal peptide in the construct; Unc5D, rat, residues 1-382 (all extracellular domains); The form held on the streptavidin-coated CM5 chip in SPR; not shown: Avitag, C-terminal, kept
B3: rat Unc5D Ig domain 1 (Unc5D^Ig) (domain or fragment)
chain: not shown
notes: signal peptide in the construct; Unc5D, rat, residues 1-161 (Ig domain 1); Treated with endoglycosidase F1 before crystallisation
B4: mouse FLRT2 LRR domain (FLRT2^LRR) (domain or fragment, UniProt Q8BLU0 35-362, looked up)
chain: T1 sequence (looked up) 1
notes: FLRT2, mouse, residues 35-362 (leucine-rich repeat domain); pHLSec vector family; treated with endoglycosidase F1 before crystallisation
B5: mouse Latrophilin3 Lec+Olf (Lphn3^Lec–Olf) (domain or fragment, UniProt Q80TS3-3 92-463, looked up)
chain: T1 sequence (looked up) 2
notes: Latrophilin3 (Lphn3, ADGRL3), mouse, residues 92-463 (lectin and olfactomedin-like domains); pHLSec vector family; treated with endoglycosidase F1 before crystallisation; Two copies (Lphn3A, Lphn3B) stand in each 1:1:2 tetramer; also called Lphn3A^Lec–Olf; Lphn3B^Lec–Olf
B6: Lphn3^Lec–Olf DDD charge-reversal mutant (D397R, D398R and D399R) (domain or fragment, mouse, UniProt Q80TS3-3 92-463, looked up)
chain: T1 sequence (looked up) 2 with D306R, D307R, D308R
notes: Latrophilin3, mouse, residues 92-463 (Lec and Olf domains) with three substitutions in the DDD loop

Series [1] has as its target B4. The series is described as follows: crystal structure; Lphn3^Lec–Olf, FLRT2^LRR and Unc5D^IgIgTsp deglycosylated, mixed 2:1:1; crystals at 18 °C; 3.4 Å (PDB 5ftt). Conditions: both partners purified.
Series [2] addresses T1, FLRT2^LRR+Lphn3^Lec–Olf (mixed in a 1:2 …). The series is described as follows: SPR; Unc5D^ecto biotinylated at a C-terminal Avitag and coupled to a streptavidin-coated CM5 chip; FLRT2^LRR or FLRT2^LRR+Lphn3^Lec–Olf (1:2 molar ratio) injected; equilibrium binding, 25 °C, PBS+0.005% polysorbate 20 pH 7.5; apparent Kd, 1:1 and 1:(1:1) models, called indicative only. The following applies: both partners purified.

For series [3], the target named is T2, FLRT2^LRR+Lphn3^Lec–Olf DDD mutant. Described as above. The following applies: both partners purified.
Series [4] has as its target B4. The experiment in a line: crystal structure; Lphn3^Lec–Olf, FLRT2^LRR and Unc5D^Ig deglycosylated, mixed 1:1:1, SEC; crystals at 18 °C, 0.1 M sodium cacodylate pH 6.5; 6 Å (PDB 5ftu). The following applies: both partners purified.
Series [5] deals with B5. The description is as above. The following applies: both partners purified.
The target of series [6] is T3, Lphn3^Lec–Olf DDD mutant (D397N+D399T, …). The series is described as follows: native MS; purified proteins mixed (FLRT2^LRR:Unc5D:Lphn3^Lec–Olf 1:1:2), 10–15 μM, 0.2 M ammonium acetate pH 7.5; Q-ToF; tandem MS of the tetramer peak at 150 V collision energy. Conditions: both partners purified.
The target in series [7] is B6. The series is described as above. Conditions: both partners purified.
In series [8] the target is T4, rat Unc5D ectodomain (Unc5D^ecto) (rat, UniProt F1LW30 31-382).
T4 construct: signal peptide in the construct; Unc5D, rat, residues 1-382 (all extracellular domains); The form used in native MS and SEC-MALS
The series is described as follows: SEC-MALS; proteins mixed (Lphn3^Lec–Olf:FLRT:Unc5 2:1:1) and concentrated; Superdex 200 10/30, 10 mM Tris-HCl pH 7.5, 150 mM NaCl. Conditions: both partners purified.

In series [9] the target is B2. The experiment in a line: SPR; Unc5D^ecto biotinylated at a C-terminal Avitag and coupled to a streptavidin-coated CM5 chip; FLRT2^LRR or FLRT2^LRR+Lphn3^Lec–Olf (1:2 molar ratio) injected; equilibrium binding, 25 °C, PBS+0.005% polysorbate 20 pH 7.5; apparent Kd, 1:1 and 1:(1:1) models, called indicative only. Conditions: both partners purified.
Series [10] concerns the molecule itself. The series is described as follows: crystal structure; Lphn3^Lec–Olf, FLRT2^LRR and Unc5D^Ig deglycosylated, mixed 1:1:1, SEC; crystals at 18 °C, 0.1 M sodium cacodylate pH 6.5; 6 Å (PDB 5ftu).
For series [11], the target named is B4. The experiment in a line: native MS; purified proteins mixed (FLRT2^LRR:Unc5D:Lphn3^Lec–Olf 1:1:2), 10–15 μM, 0.2 M ammonium acetate pH 7.5; Q-ToF; tandem MS of the tetramer peak at 150 V collision energy. Conditions: both partners purified.
Series [12] concerns the molecule itself. The description is as above.

T4 sequence (F1LW30 31-382): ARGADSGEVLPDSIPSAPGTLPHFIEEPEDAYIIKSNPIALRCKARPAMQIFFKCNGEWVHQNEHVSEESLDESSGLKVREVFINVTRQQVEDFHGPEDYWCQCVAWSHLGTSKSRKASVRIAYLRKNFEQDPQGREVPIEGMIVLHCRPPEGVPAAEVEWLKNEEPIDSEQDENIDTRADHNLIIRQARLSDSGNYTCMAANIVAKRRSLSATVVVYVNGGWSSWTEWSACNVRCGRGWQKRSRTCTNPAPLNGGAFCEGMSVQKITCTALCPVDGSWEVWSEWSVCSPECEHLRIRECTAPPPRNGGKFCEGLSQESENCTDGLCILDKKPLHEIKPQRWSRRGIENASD

As for B1, in series [1], the binding result was “binds”.
As for B2, in series [2], the Kd amounted to 94 nM. Also, the binding result in [3] was “binds”.
Regarding B3, the binding result in [4] is on record as “binds”.
For the molecule B4, the binding result in series [5], in series [6] and in series [7] was “binds” in each case. Besides, in [8], the “stoichiometry N” value amounted to 1. Besides, the Kd in series [9] amounted to 460 nM.
On to B5, for which, in [10], the binding result was “binds”. The “stoichiometry N” value in series [11] is 1 and 2.
Take B6: the binding result in [12] is given as “binds”.
